Usually stoichiometry N stands for a count of units in the complex or per binding partner.

The target of assay [1] is IatT, GCN5-related N-acetyltransferase (GNAT) of the iat lasso peptide BGC (Actinosynnema mirum DSM 43827). The assay can be described thus: cryo-EM structure.
The target is the same in assay [2]. The assay is described as follows: ITC.

In the case of “IatT, GCN5-related N-acetyltransferase (GNAT) of the iat lasso peptide BGC (enzyme)”, in assay [1], the stoichiometry N was 14. With “mirusin B (compound 2), monoacetylated lasso peptide”, the stoichiometry N (molar equivalent) in assay [2] came out at 1. As for “mirusin C (compound 3), diacetylated lasso peptide”, the stoichiometry N (molar equivalent) in assay [2] stood at 1.

The values above are taken from article doi:10.1101/2024.12.31.630886.
